In the RNAGym collection of RNA variant scans (doi:10.7554/elife.80360):

B1: Twister Ribozyme (parent)
chain: AACACUGCCAAUGCCGGUCCCAAGCCCGGAUAAAAGUGGAGGGGGCGG

Variants of: B1
Test: self-cleavage, relative activity (ratio to wild type); higher = more cleavage; co-transcriptional
With A10U G39A the self-cleavage was 0.531. Work on C9U A35U yielded a self-cleavage of 0.767. For A32G G44C, the self-cleavage was 0.907. Work on A32G G44A yielded a self-cleavage of 0.929. Variant A11C A33C has a self-cleavage of 0.724. C9U C26A gave a self-cleavage of 0.0658. A23C G24A gave a self-cleavage of 0.107. Variant C8G G41U has a self-cleavage of 0.129. Work on C5A C15U yielded a self-cleavage of 0.398. With C15A G28U the self-cleavage was 0.736. With A10G G47U the self-cleavage was 1.01. Variant G13U A30U has a self-cleavage of 0.749. With U6G G43A the self-cleavage was 0.144. For C25G U37A, the self-cleavage was 0.166. C15A A34U gave a self-cleavage of 0.273. In the case of C3U G47U, the self-cleavage is reported as 0.513. U6A G43U showed a self-cleavage of 0.245. Variant A4G A23G has a self-cleavage of 0.384. For C21U G38U, the self-cleavage was 0.0705. U12A G29U gave a self-cleavage of 1.13. Work on C19G A40G yielded a self-cleavage of 0.135. In the case of U18C C27G, the self-cleavage is reported as 0.0754. With G13C G39C the self-cleavage was 0.117. G29U gave a self-cleavage of 0.937. A4C C27G gave a self-cleavage of 0.0637. Variant C5A G47U has a self-cleavage of 0.486. With C14A A34U the self-cleavage was 0.866. With C25A C26A the self-cleavage was 0.0988. Variant C3G A22G has a self-cleavage of 0.124. For G36U G42C, the self-cleavage was 0.16. G7C A23G showed a self-cleavage of 0.13. G16A G47C gave a self-cleavage of 0.351. A4G C46A showed a self-cleavage of 0.785. G17U U37C gave a self-cleavage of 0.085. A32G G38A gave a self-cleavage of 0.846. Variant C8G A40G has a self-cleavage of 0.146. C3A A32U gave a self-cleavage of 0.278. In the case of C5U C8U, the self-cleavage is reported as 0.398. Variant A1G A35C has a self-cleavage of 0.359. For G38U G43U, the self-cleavage was 0.156. Variant C21U G42A has a self-cleavage of 0.0823. For U12A G42U, the self-cleavage was 0.427. For C5A A22C, the self-cleavage was 0.601. In the case of A35U G45C, the self-cleavage is reported as 0.723. A33U G43A showed a self-cleavage of 0.233. A11U A22G gave a self-cleavage of 0.399. In the case of A11G G24U, the self-cleavage is reported as 0.143. Variant C19A G45U has a self-cleavage of 0.257. Variant G16C G43C has a self-cleavage of 0.161. A10C C15U showed a self-cleavage of 0.942. C9A C15G showed a self-cleavage of 0.0772. Work on G38U G42C yielded a self-cleavage of 0.177. For G16U G45A, the self-cleavage was 0.608. C5G G44C showed a self-cleavage of 0.678. C19U G38C gave a self-cleavage of 0.782. Work on U37C G44U yielded a self-cleavage of 0.768. For U12G G17A, the self-cleavage was 0.577. Work on G16C A40C yielded a self-cleavage of 0.0741. C9G C19U gave a self-cleavage of 0.144. With C20A C21A the self-cleavage was 0.0664. Variant A2C G36U has a self-cleavage of 0.0783. For U31C G39A, the self-cleavage was 0.456. With C14G U18A the self-cleavage was 0.0727. C26A G29A gave a self-cleavage of 0.267. For A4G C19A, the self-cleavage was 0.0929. G29C G42U gave a self-cleavage of 0.129. Variant C8A G38C has a self-cleavage of 0.161. In the case of G17A G29A, the self-cleavage is reported as 0.308. C5G C19A gave a self-cleavage of 0.0784. A11G C15U showed a self-cleavage of 0.912. For C27U A33U, the self-cleavage was 0.709. With U18A C46A the self-cleavage was 0.252. In the case of C21U A30U, the self-cleavage is reported as 0.141. Work on G7A A40G yielded a self-cleavage of 0.157. Work on G28U A33U yielded a self-cleavage of 0.833. For G13A C26A, the self-cleavage was 0.095. Work on C19A A23C yielded a self-cleavage of 0.126. In the case of G16U G48A, the self-cleavage is reported as 0.898. In the case of C9A G38U, the self-cleavage is reported as 0.32. With C8A U37A the self-cleavage was 0.225. Work on C21A C46G yielded a self-cleavage of 0.173. With G24U G38A the self-cleavage was 0.0987. In the case of C15A A30C, the self-cleavage is reported as 0.648. For C21U G43C, the self-cleavage was 0.0867. U18G A34U gave a self-cleavage of 0.0388. A32U G42A gave a self-cleavage of 0.324. Work on G17A C20G yielded a self-cleavage of 0.0402. In the case of A11C A30U, the self-cleavage is reported as 0.959. A30G A35G showed a self-cleavage of 0.869. Variant A11G G38U has a self-cleavage of 0.613. In the case of A40C G44U, the self-cleavage is reported as 0.296. In the case of A1U C27A, the self-cleavage is reported as 0.0592. Work on C25G U31C yielded a self-cleavage of 0.404. In the case of C9G A40U, the self-cleavage is reported as 0.151. In the case of C20G G48A, the self-cleavage is reported as 0.124. Work on A4G C15A yielded a self-cleavage of 0.631. A35C G42C showed a self-cleavage of 0.381. For A34U A40G, the self-cleavage was 0.122. Variant C21U C27A has a self-cleavage of 0.0634. A22G A30G gave a self-cleavage of 0.394. U6G G41A showed a self-cleavage of 0.156. For A10G G38C, the self-cleavage was 0.93. G17A U18C showed a self-cleavage of 0.221. For A11U G38C, the self-cleavage was 1.08. Work on G38U G48U yielded a self-cleavage of 1.05. C8G A23C gave a self-cleavage of 0.0689. In the case of A22U A35U, the self-cleavage is reported as 0.659. Variant A11G A32G has a self-cleavage of 0.882. For G24C C25G, the self-cleavage was 0.118. A23G G24A showed a self-cleavage of 0.12. C25A G43U gave a self-cleavage of 0.0941. With A30U U31G the self-cleavage was 0.993. Work on A1G A30G yielded a self-cleavage of 0.376. In the case of C21G G28U, the self-cleavage is reported as 0.0788. Variant C19G G36C has a self-cleavage of 0.118. With U31C G43C the self-cleavage was 0.194. In the case of C8U U18C, the self-cleavage is reported as 0.0906. C26G G48A showed a self-cleavage of 0.107. Variant A30G A34G has a self-cleavage of 0.761. For C8G A33G, the self-cleavage was 0.232. In the case of G17C U18G, the self-cleavage is reported as 0.0748. In the case of A10C G38U, the self-cleavage is reported as 0.832. G17A A23C gave a self-cleavage of 0.0909. Variant G7C G17A has a self-cleavage of 0.0642. Variant G24C U37G has a self-cleavage of 0.12. Work on C27U A30C yielded a self-cleavage of 0.701. Variant A23U A40G has a self-cleavage of 0.0874. C3U C5A showed a self-cleavage of 0.219. In the case of C8G U18A, the self-cleavage is reported as 0.0816. Work on C46U G47U yielded a self-cleavage of 1.02. In the case of C46G G48A, the self-cleavage is reported as 1. Variant A34G G38C has a self-cleavage of 0.632. Variant A4U U31C has a self-cleavage of 0.0955. For A1G G44C, the self-cleavage was 0.251. Work on C5U C27A yielded a self-cleavage of 0.21. In the case of C25U G44C, the self-cleavage is reported as 0.692. G7U G41U showed a self-cleavage of 0.0899. With C3A A11C the self-cleavage was 0.153. For G29A G38U, the self-cleavage was 0.634. A2U A11C showed a self-cleavage of 0.309. For C27A G28A, the self-cleavage was 0.423. With G7C A40G the self-cleavage was 0.0675. For C26U A32U, the self-cleavage was 0.34. Work on G36U G38A yielded a self-cleavage of 0.452. Work on G28A G29A yielded a self-cleavage of 0.898. Variant C9G A35C has a self-cleavage of 0.556. In the case of A2U U12A, the self-cleavage is reported as 0.667. Work on G36C G43A yielded a self-cleavage of 0.134. With C21U A34U the self-cleavage was 0.11. Variant A4G G43C has a self-cleavage of 0.168. C19G A34G showed a self-cleavage of 0.108. C20U G42U showed a self-cleavage of 0.399. For G38U G41A, the self-cleavage was 0.162. Variant C21A A32G has a self-cleavage of 0.0702. Variant A33C G41C has a self-cleavage of 0.151. With C14U C21G the self-cleavage was 0.108. G7U C27U gave a self-cleavage of 0.079. Variant U18G G28U has a self-cleavage of 0.089. In the case of G38U G39A, the self-cleavage is reported as 0.185. A34C G44U showed a self-cleavage of 0.165. Variant G16U G29U has a self-cleavage of 0.87. A23C A34U showed a self-cleavage of 0.0811. With C5U G17A the self-cleavage was 0.237. Work on A4G G48U yielded a self-cleavage of 0.979. Work on A22C G39A yielded a self-cleavage of 0.238. U18G G41U gave a self-cleavage of 0.0362. Variant A2G G13U has a self-cleavage of 0.0873.
